The text below walks through data of the nanobody polyreactivity screen of Harvey et al. (2022).

This data set can be described thus: yeast display, Sf9 membrane polyspecificity reagent, FACS + sequencing; frameworks hold sequencing errors. Put shortly: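 Polyreactivity labels are assigned by the sorting gate from which each nanobody was recovered. The gates were low and high (top ~1%), set on anti-HA fluorescence for expression and streptavidin fluorescence for reagent binding. Before sorting, galactose-induced (36–48 hours) yeast display cells were stained for 1 hour at 4 °C with 10% biotinylated, detergent-solubilized Sf9 membrane reagent.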
Take “QVQLVESGGGLVQAGGSLRLSCAASGSIFRYYVMGWYRQAPGKERELVAAISTGDRTNYADSVKGRFTISRDNAKNTVYLQMNILKPEDTAVYYCNADYVVGWARLEFNYWGQGTQVTVSS”: the “polyreactivity (PSR sort gate)” value was “low polyreactivity”.
Next, “QVQLVESGGGLVQAGGSLRLSCAASGSIFRYYVMGWYRQAPGKERELVAAITKSAGSTYYADSVKGRFTISRDNAKNTVYLQMNSLKPEDTAVYYCAARRVSRGNSKFDYYWGQGTQVTVSS”: “high polyreactivity”.
Next, “QVQLVESGGGLVQAGGSLRLSCAASGSIFRYYVMGWYRQAPGKERELVASITGSGGSTYYADSLKGRFTISRDNAKNTVYLQMNSLKPEDTAVYYCAASYRMRYGYWGQGTQVTVSS”: “high polyreactivity”.
To “QVQLVESGGGLVQAGGSLRLSCAASGSIFSDYALGWYRQAPGKERELVAAITQSGGSTYADSVKGRFTISRDNAKNTVYLQMNSLIPEDTAVYYCAADEVPGFGYPPYPWFDYWGQGTQVTVSS” belongs “low polyreactivity”.
Take “QVQLVESGGGLVQAGGSLRLSCAASGSIFSENTRGWYRQAPGKERELVAAISWSGGSTNYADSVKGRFTISRDNAKNTVYLQMNSLKPEDTAVYYCFYWGQCTQVTVSS”: the “polyreactivity (PSR sort gate)” value was “low polyreactivity”.
Next, “QVQLVESGGGLVQAGGSLRLSCAASGSIFSFYAMGWYRPAPGKERELVAAISYRGGSTYYADSVKGRFTISRDNAKNTVYIQMNSLKPVDSAVSYCAAARFPVFIQGYRMEYWGQGTQVTVSS”: “low polyreactivity”; “QVQLVESGGGLVQAGGSLRLSCAASGSIFSFYAMGWYRQAPGKEMELVATISSGDNTNYADSVKGRFTISRDNAKNTVYLQMNSLKPEDNAVYYCAADAWGVDREYDYWGQGTQVTVSS”: “low polyreactivity”; “QVQLVESGGGLVQAGGSLRLSCAASGSIFSFYAMGWYRQAPGKERELVADITWSGGRTYYADSVKGRFTISRDNAKNTVYLQMNSLKPEDTAVYYCNTELYLSRYKYVWSFDYWGQGTQVTVSS”: “low polyreactivity”.
Next, “QVQLVESGGGLVQAGGSLRLSCAASGSIFSGNAMGWYRQAPGKERELVAAITSGGSTYYADSVKGRFTISRDNAKNTVYLQMNSLKPEDTAVYYCAAVWYQYYYDRRHDYWGQGTQVTVSS”: “low polyreactivity”; “QVQLVESGGGLVQAGGSLRLSCAASGSIFSGNEMAWYRQAPGKERELVAAISSNGGRTYYADSVKGRFTISRDNEKNTVYLQMNSLKPEDTAVDYCAADSGKRRYGYYYWGQATQVTVSS”: “high polyreactivity”; “QVQLVESGGGLVQAGGSLRLSCAASGSIFSGNTMGWYRQAPGKERELVAAISGGGSTNYADSVKGRFTISRDNAKNTVYLQMNSLKPEDTAVYYCAAEPDHVADSHSGYDYWGQGTQVTVSS”: “low polyreactivity”.
To “QVQLVESGGGLVQAGGSLRLSCAASGSIFSGYAMGWYRQAPGKERELVAAISRGGSTNYADSVKGRFTISRDNAKNTVYLQMNSLKPEDTAVYYCATTPTKYHYAFGYWGQGSQVTVSS” belongs “low polyreactivity”; to “QVQLVESGGGLVQAGGSLRLSCAASGSIFSGYTMGWYRQAPGKDRELVAGISYRGGSTYYADSVKGRFTISRDNAKNTVYLQMNSLKPEDTAVYYCAALYYRRGSLNYEYWGQGTQVTVSS”, “high polyreactivity”.
Take “QVQLVESGGGLVQAGGSLRLSCAASGSIFSGYTMGWYRQAPGKERELVAGISYRGGSTYYADSVKGRFTNSRDNAKNTVYLQMNSLKPEDTAVYYCAALYYRRGSLNYEYWGQGTQVTVSS”: the “polyreactivity (PSR sort gate)” value is “high polyreactivity”.
Next, “QVQLVESGGGLVQAGGSLRLSCAASGSIFSGYVMGWYRQAPGKERELVAAINSRAGRTYYADSVKGRFTISRDNAKNTVYLQMNSLKPEDTAVYYCNAPTSFHRGGGYWGQGTQVTVSS”: “high polyreactivity”; “QVQLVESGGGLVQAGGSLRLSCAASGSIFSGYVMGWYRQSPGKESELDAAISYSGGSKYYADSVKGRFTISRDNAKNTVYLQMNSLKPEDTAVYFCAAPGWLSQPRYRGYDYWGQGTQVSVSS”: “high polyreactivity”; “QVQLVESGGGLVQAGGSLRLSCAASGSIFSHYAMGWYRQAPGKERELVARITWGGGSTYADCVKGRFTISRDNAKNTVYLQMKSLKPEDTAVYYCAAVPVGYDSDWGYYYWGQGTQVTVSS”: “low polyreactivity”.
For “QVQLVESGGGLVQAGGSLRLSCAASGSIFSINAMGWYRQAPGKERELVAAINGSGGNTYYADSVKGRFTISRDNAKNTVYLQMNSLKPEDTAVYYCAAEGYSYWSFDELDYWGQGTQVTVSS”, the “polyreactivity (PSR sort gate)” value is reported as “low polyreactivity”.
For the sequence “QVQLVESGGGLVQAGGSLRLSCAASGSIFSKNARGWYRQAPGKERELVAAISWSGDRTYYADSVKGRFTISRDNAKNTVYLQMNSLKPEDTAVYYCAADYTVKYGYWGQGTQVTVSS”, the “polyreactivity (PSR sort gate)” value is given as “high polyreactivity”.
To “QVQLVESGGGLVQAGGSLRLSCAASGSIFSKYAMGWYRQAPGKERELVAAITSSGGSTYYADSVKGRFTISRDNAKNTVYLQMNSLKPEDNAVYYCAAGGRSVRYNYWGQGTQVTVSS” belongs “high polyreactivity”; to “QVQLVESGGGLVQAGGSLRLSCAASGSIFSLYAMGWYRQAPGKERELVAAITWTGGSTYYADSVKGRFTISRDNAKNTVYLQMNSLKPEDTAVYYCDARRVVYRYYWYSAYDYWGRGTQVTVSS”, “high polyreactivity”; to “QVQLVESGGGLVQAGGSLRLSCAASGSIFSNYAMGWYRQAPGKERELVAAITWSGDDTYYADSVKGRFTISRDNAKTTVYLQMNSLKPVDTAVYYCAAEYHGYRYNYYPYSHYFIYESWGQGTQVTVSS”, “high polyreactivity”.
Take “QVQLVESGGGLVQAGGSLRLSCAASGSIFSPNARGWYRQAPGKEREVVAGISWSGDGTYYADSVKGRFTISRDYAKNTVYLQMNSLKPEDTAVYYCAARFGRYSHRYYYWGQGTQVTVSS”: the “polyreactivity (PSR sort gate)” value is “high polyreactivity”.
To “QVQLVESGGGLVQAGGSLRLSCAASGSIFSPNDMGWYRQAPGKERELVAAITSAGSTYYADSVKGRFTISRDNAKNTVYLQMNSLKPDDTAVYYCAATYISVTDYAYFPLWYGYWGQGTQVTVSS” belongs “low polyreactivity”.
To “QVQLVESGGGLVQAGGSLRLSCAASGSIFSPYAMGWYRQAPGKERELVAAISFRASTTYYADSVKGRFTISRDNAKNTVYLQMNSLKPEDTAVYYCSASALYSWFWGLYDYWGQGTQVTVSS” belongs “low polyreactivity”; to “QVQLVESGGGLVQAGGSLRLSCAASGSIFSPYAMGWYRQAPGKERELVAGISKSAGTTFYADSVKGRFTISRDNAKNTVYLQMNSLKPEDTAVYYCAADYYYPAWYLSDYWGQGTQVTVSS”, “low polyreactivity”.
With “QVQLVESGGGLVQAGGSLRLSCAASGSIFSQNAMGWYRQAPGKEREFVAAIRWSAGSTYYADSVKGRFTISRDNAKNTVYLQMNSLKPEDTAVYYCNAALNVSGHYPNDYWGQGTQVTVSS”, the “polyreactivity (PSR sort gate)” value is on record as “low polyreactivity”.
Next, “QVQLVESGGGLVQAGGSLRLSCAASGSIFSQNAMGWYRQAPGKERELVAAITSSGGNTYADSVKGRFTISRDNAKNTVYLQMNRLKPEDTAVYYCAAGHLVILNRSEYYYWGQGTQVTVSS”: “low polyreactivity”; “QVQLVESGGGLVQAGGSLRLSCAASGSIFSQYAMGWYRQAPGKERELVAAITYGGGSTYYADSVKGRFTISRDNAKNTVYLQMNSLKPEDTAVYYCAAGYWNDFDWGQGTQVTVSS”: “low polyreactivity”; “QVQLVESGGGLVQAGGSLRLSCAASGSIFSRNAMGWYRQAPGKERELVAAITWSGGSTYYADSVKGRFTISRDNAKNTVYLQMNSLKPEDTAVYYCNAKRSSRIKQLEYDYWGQGTQVTVSS”: “high polyreactivity”.
Next, “QVQLVESGGGLVQAGGSLRLSCAASGSIFSRNAMGWYRQARGKERELVAAISWRGGSTYYADSVKGRFTISRDNAKNTGYLQMNSLKPEDTAVYYCAAVYQFIKWGDRYEYWGQGTQVTVSS”: “high polyreactivity”; “QVQLVESGGGLVQAGGSLRLSCAASGSIFSRYAMGWYIQAPGKERELVAAISTGGGRTYYADSVKGRFTISRDNAKNTVYLKMNSLKPEDTAVYYCAAPQQQSWTYDGRYGYWGQGTQVTVSS”: “high polyreactivity”; “QVQLVESGGGLVQAGGSLRLSCAASGSIFSRYAMGWYRQAPGKERELVAAISRRGGTTYYADSVKGRFTISRDNAKNTVYLQMNSQKPVDTAVYYCAAVFVTQSFIYDYYYWGQGTQVTVSS”: “high polyreactivity”.
In the case of “QVQLVESGGGLVQAGGSLRLSCAASGSIFSRYAMGWYRQAPGKERELVAAITSSGGRTYYADSVKGRFTISRDNAKNTVYLQMNSLKPEDTAVYYCAAEYYYIVTYDFGYWGQGTQVTVSS”, the “polyreactivity (PSR sort gate)” value is recorded as “low polyreactivity”.
Next, “QVQLVESGGGLVQAGGSLRLSCAASGSIFSRYAMGWYRQAPGKEREVVADISQRAGSTYYADSVKGRFTISRDNAKITVYLQMNSLKPEDTAVYYCAKPEAQVGGYWGYDYWGQGTQVTVSS”: “high polyreactivity”; “QVQLVESGGGLVQAGGSLRLSCAASGSIFSSNVMGWYRQAPWKERELVAAITVRGSRTYYADSVKGRFTISRDNAKNTVYLQLNSLKPEDTAVYYCNAVARVLGSDRRLQYYYWGQGTQVTVSS”: “high polyreactivity”; “QVQLVESGGGLVQAGGSLRLSCAASGSIFSSYAMGWYRQAPGKERELVAAISSGDSTYYADSVKGRFTISRDNAKNTVYLQMNSLKPEDTAVYYCAAPWYAWGQGTQVTVSS”: “low polyreactivity”.
Next, “QVQLVESGGGLVQAGGSLRLSCAASGSIFSSYAMGWYRQAPGKERELVAAITSGGSTYYADSVKGRFTISRDNAKNTVYLQLFSLKPEDTAVYYCAARQVRTSKLHMGYWGQGTQVTVSS”: “low polyreactivity”.
Next, “QVQLVESGGGLVQAGGSLRLSCAASGSIFSSYAMGWYRQAPGKERELVAAITSGGSTYYADSVKGRFTISRDNAKNTVYLQMNSLKPEDTAVYYCAAYRSYFGYDYWGQGTQVTVSS”: “low polyreactivity”; “QVQLVESGGGLVQAGGSLRLSCAASGSIFSSYAMGWYRQAPGKERELVASISWRSGSTYYADSVKGRFTISRDNAKNTVYLQMNSLKPEDTAVYYCATAYYRYYKYRFYYWGQGTQVTVSS”: “high polyreactivity”; “QVQLVESGGGLVQAGGSLRLSCAASGSIFSSYAMGWYRQAPGKEREMVAAITYSGGRTYYADSVKGRFTISRDNAKNTVYLQMNSLKPEDTAVYYCNARKYVGFWSRYDYWGQGTQVTVSS”: “high polyreactivity”.
